This experiment deals with ABP1. Nature of the experiment: DHFR-PCA on solid medium, bait ABP1 (Fig. 1B). The experiment is classed as cell-based, Saccharomyces cerevisiae. The note with it: bait ABP1, label = prey; for medrep (log2 median colony size normalized to plate background, PCA score): 2-4 replicates; for Ratio (SH3-deleted/WT medrep): only significant differences showed, PPIs completely lost have a ratio of 0.1 and the gained PPIs 2.5. The text has this: Supplement 41467_2021_21873_MOESM8_ESM.xlsx, sheet "Fig1B" | column: medsize; medrep; Ratio; Score

Consider ten molecules from paper PMC7954794, “Protein context shapes the specificity of SH3 domain-mediated interactions in vivo” (Nature Communications, 2021).

B1: YNL020C (protein, UniProt P53974 1-638, looked up)
Actin-regulating kinase 1: MNQPQIGTYNVGTQLTVGSHQVEIIKYLTSGGFAQVYSALINPPDPHSNSSVACLKRVIVPDKPSLNTLRAEVDAMRLLKNNRYVVSYIDSHAAKAMLHNGSYEVFVLMEYCERGGLIDFMNTRLQNRLHEFEILQIMSQVTQGVAAMHALQPPLIHRDIKIENVLISANNEYKLCDFGSVCGIIRPPRNSQELSYVQQDILKNTTAQYRSPEMIDTFRGLPIDEKSDIWALGIFLYKLCYYTTPFEKGGDLAILSGKFEFPLYPNYSEQLKGLIRDILVQDPRHRPNVYQLLKRISIMQNVPCPINDIQVVQAPSSHLNLTELHQLSATQNILSLNSPTTMENTMPNATFQISMADNTTTAQMHPNRKPSQIAYDASFSNSAKGSQPLFDKSQNMYHALDPPLVEPLASSVSNNDNELKANSATKLKQAIVSEAHTFRQNNSIDFPLQNIIPQYEDSSSSSDESYSGDVDELKKTRSLGSYSTRGNIKKNQSVKESLTSSSLPGTSFTPTSTKVNLKHENSPFKSTFVNTIDNSKDDLNKPSYEDLDVSKQNLKNSIQQRMIDKLNSSEESFNARKMSKVKLHEKGEIDKPTMLKSSGPISKDKKTKPTPPPKPSHLKPKPPPKPLLLAGRKLSLDK
For B1, the “medrep (log2 median colony size normalized to plate background, PCA score)” value was determined as 4.233.

B2: YJL128C (protein, UniProt P08018 1-668, looked up)
MAP kinase kinase PBS2: MEDKFANLSLHEKTGKSSIQLNEQTGSDNGSAVKRTSSTSSHYNNINADLHARVKAFQEQRALKRSASVGSNQSEQDKGSSQSPKHIQQIVNKPLPPLPVAGSSKVSQRMSSQVVQASSKSTLKNVLDNQETQNITDVNINIDTTKITATTIGVNTGLPATDITPSVSNTASATHKAQLLNPNRRAPRRPLSTQHPTRPNVAPHKAPAIINTPKQSLSARRGLKLPPGGMSLKMPTKTAQQPQQFAPSPSNKKHIETLSNSKVVEGKRSNPGSLINGVQSTSTSSSTEGPHDTVGTTPRTGNSNNSSNSGSSGGGGLFANFSKYVDIKSGSLNFAGKLSLSSKGIDFSNGSSSRITLDELEFLDELGHGNYGNVSKVLHKPTNVIMATKEVRLELDEAKFRQILMELEVLHKCNSPYIVDFYGAFFIEGAVYMCMEYMDGGSLDKIYDESSEIGGIDEPQLAFIANAVIHGLKELKEQHNIIHRDVKPTNILCSANQGTVKLCDFGVSGNLVASLAKTNIGCQSYMAPERIKSLNPDRATYTVQSDIWSLGLSILEMALGRYPYPPETYDNIFSQLSAIVDGPPPRLPSDKFSSDAQDFVSLCLQKIPERRPTYAALTEHPWLVKYRNQDVHMSEYITERLERRNKILRERGENGLSKNVPALHMGGL
Turning to B2, the “medrep (log2 median colony size normalized to plate background, PCA score)” value is 2.693.

B3: YGL099W (protein, UniProt P53145 1-640, looked up)
Large subunit GTPase 1: MPPKEAPKKWKAPKGPKPTHRKNKNKLELGRAIKYARQKENAIEYLPDGEMRFTTDKHEANWVKLRSVTQESALDEFLSTAALADKDFTADRHSNVKIIRMDSGNDSATSQGFSMTNEQRGNLNAKQRALAKDLIVPRRPEWNEGMSKFQLDRQEKEAFLEWRRKLAHLQESNEDLLLTPFERNIEVWKQLWRVVERSDLVVQIVDARNPLLFRSVDLERYVKESDDRKANLLLVNKADLLTKKQRIAWAKYFISKNISFTFYSALRANQLLEKQKEMGEDYREQDFEEADKEGFDADEKVMEKVKILSIDQLEELFLSKAPNEPLLPPLPGQPPLINIGLVGYPNVGKSSTINSLVGAKKVSVSSTPGKTKHFQTIKLSDSVMLCDCPGLVFPNFAYNKGELVCNGVLPIDQLRDYIGPAGLVAERIPKYYIEAIYGIHIQTKSRDEGGNGDIPTAQELLVAYARARGYMTQGYGSADEPRASRYILKDYVNGKLLYVNPPPHLEDDTPYTREECEEFNKDLYVFDRLPDTRKEQVQNAAKAKGIDIVDLARDLNQLTFSAHTGGDTQKEAKSVTHGGKQAALYNAAEDLDRDFFKMNNVEGRLSTPFHKVQNSSAGKRHNKKNKSKNAKSKVFSIENN
As for B3, the “medrep (log2 median colony size normalized to plate background, PCA score)” value was determined as 1.414 and the “Ratio (SH3-deleted/WT medrep)” value amounted to 0.1.

B4: YNL094W (protein, UniProt P53933 1-587, looked up)
Phosphatidate phosphatase APP1: MNSQGYDESSSSTAATSGPTSGDPRMGKKQRFMNLIRTTKDVYIPNLTSSISQKTMDGIRSTTNSFEGYNDLPMELPHNTTITYFPTYTTTNLVDPDGLSAPRKDFETTVRCAVSYPGNPTSRRNRWLLSLCKQYLRTGTAEADVAPVVPPHLEEDSGDLNDSQSSIESSLSSKSENRYSHMGIQEEDVLNERIQGFLSKKVPNTPVVVDLLPKDKLRGDTASFFGTTDSYGNLLIKAETDFLPSKINITLDTPIEGHADPISETFPANYVSPYGIGLISDIDDTIKHTGVTGDRRSMFRNVFIHDVQSWVIDGVPLWYKTLHDVADVDFFYVSNSPIQTFTLLKQYICANFPPGPIFLKQYSGNFFSTIMTSSANRKIQPIANILKDFPKKKFILVGDSGEHDLEAYTTTALQFPNQILAIYIRCCSNSMSDVPSHDEEVMNEVNNIIELQQRPMQMTKSTVRTRRRPPPPPIPSTQKPSLTEEQTESIRMSRRNKDENNAKRVAPPPLPNRQLPNLDANTYYVPSSQNDYGMYGAFMDKKADEWKRRVMDSIQKLSNQDTTLMFFSDPALSLEDSIRRIREKYSN
For the molecule B4, the “medrep (log2 median colony size normalized to plate background, PCA score)” value is given as 1.857 and the “Ratio (SH3-deleted/WT medrep)” value worked out at 0.1.

B5: YNL098C (protein, UniProt P01120 2-319, looked up)
Ras-like protein 2: PLNKSNIREYKLVVVGGGGVGKSALTIQLTQSHFVDEYDPTIEDSYRKQVVIDDEVSILDILDTAGQEEYSAMREQYMRNGEGFLLVYSITSKSSLDELMTYYQQILRVKDTDYVPIVVVGNKSDLENEKQVSYQDGLNMAKQMNAPFLETSAKQAINVEEAFYTLARLVRDEGGKYNKTLTENDNSKQTSQDTKGSGANSVPRNSGGHRKMSNAANGKNVNSSTTVVNARNASIESKTGLAGNQATNGKTQTDRTNIDNSTGQAGQANAQSANTVNNRVNNNSKAGQVSNAKQARKQQAAPGGNTSEASKSGSGGCC
With B5, the “medrep (log2 median colony size normalized to plate background, PCA score)” value worked out at 3.322.

B6: YJR083C (protein, UniProt P47129 1-309, looked up)
Assembly-complementing factor …: MSEDQRVISQPIELHKLSIVDKHSQGQQQQPHQKQHEVQPESKSPRVTTPLKPKRLAIPISSPQRSTTNQSPVSDHASPISTDQDLIYKLAAKHREINELSFKLEVAQKELKQLELQFKDTLPRNGQQKLGNQNPSEYLSTFTKRIQQTFVDVNNSPNMLKGKKSINDFFSKPNNNVNSNINNTLPNRKPNPPPNRSQRMQNIAPSRSSESTPTSGPPLLPPRNTMKNANTTATAGENTPFLQRILNKFNQMNMEEDEFDDLLEKRKSKKDHYYIKENLGYEYDEVRSEDEDDEEFEPMGDIPVHLFKR
B6: the “medrep (log2 median colony size normalized to plate background, PCA score)” value is on record as 1.804 and the “Ratio (SH3-deleted/WT medrep)” value came to 0.1.

B7: YLR330W (protein, UniProt Q12114 1-671, looked up)
Chitin biosynthesis protein …: MSSVDVLLTVGKLDASLALLTTQDHHVIEFPTVLLPENVKAGSIIKMQVSQNLEEEKKQRNHFKSIQAKILEKYGTHKPESPVLKIVNVTQTSCVLAWDPLKLGSAKLKSLILYRKGIRSMVIPNPFKVTTTKISGLSVDTPYEFQLKLITTSGTLWSEKVILRTHKMTDMSGITVCLGPLDPLKEISDLQISQCLSHIGARPLQRHVAIDTTHFVCNDLDNEESNEELIRAKHNNIPIVRPEWVRACEVEKRIVGVRGFYLDADQSILKNYTFPPVNEEELSYSKENEPVAEVADENKMPEDTTDVEQVASPNDNESNPSEAKEQGEKSGHETAPVSPVEDPLHASTALENETTIETVNPSVRSLKSEPVGTPNIEENKADSSAEAVVEEPNEAVAESSPNEEATGQKSEDTDTHSNEQADNGFVQTEEVAENNITTESAGENNEPADDAAMEFGRPEAEIETPEVNESIEDANEPAEDSNEPVEDSNKPVKDSNKPVEDSNKPVEDSNKPVEDSNKPVEDANEPVEDTSEPVEDAGEPVQETNEFTTDIASPRHQEEDIELEAEPKDATESVAVEPSNEDVKPEEKGSEAEDDINNVSKEAASGESTTHQKTEASASLESSAVTEEQETTEAEVNTDDVLSTKEAKKNTGNSNSNKKKNKKNKKKGKKK
In the case of B7, the “medrep (log2 median colony size normalized to plate background, PCA score)” value came to 3.386.

B8: YNL255C (protein, UniProt P53849 1-153, looked up)
Zinc finger protein GIS2: MSQKACYVCGKIGHLAEDCDSERLCYNCNKPGHVQTDCTMPRTVEFKQCYNCGETGHVRSECTVQRCFNCNQTGHISRECPEPKKTSRFSKVSCYKCGGPNHMAKDCMKEDGISGLKCYTCGQAGHMSRDCQNDRLCYNCNETGHISKDCPKA
B8: the “medrep (log2 median colony size normalized to plate background, PCA score)” value stood at 2.801.

B9: YJL155C (protein, UniProt P32604 1-452, looked up)
Fructose-2,6-bisphosphatase: MGYSTISNDNDIKVCVIMVGLPARGKSFISQKIIRYLSWLSIKAKCFNVGNYRRDVSGNVPMDAEFFNFENTDNFKLRELAAQNAIKDIVNFFTKEDGSVAVFDATNSTRKRRKWLKDICEKNNIQPMFLESWSNDHELIINNAKDIGSTSPDYENSEPHVAEADFLERIRQYERFYEPLDPQKDKDMTFIKLVNIIEEVVINKIRTYLESRIVFYVMNIRPKPKYIWLSRHGESIYNVEKKIGGDSSLSERGFQYAKKLEQLVKESAGEINLTVWTSTLKRTQQTANYLPYKKLQWKALDELDAGVCDGMTYEEIEKEYPEDFKARDNDKYEYRYRGGESYRDVVIRLEPVIMELERQENVLIITHQAVLRCIYAYFMNVPQEESPWMSIPLHTLIKLEPRAYGTKVTKIKANIPAVSTYKEKGTSQVGELSQSSTKLHQLLNDSPLEDKF
As to B9, the “medrep (log2 median colony size normalized to plate background, PCA score)” value worked out at 1.596.

B10: YMR216C (protein, UniProt Q03656 1-742, looked up)
Serine/threonine-protein …: MGSSINYPGFVTKSAHLADTSTDASISCEEATSSQEAKKNFFQRDYNMMKKAPAPTKSKLSLALQTSKSSSSANGTVQEDTSSKTEDFSTKSIKKKPDSGVESHVSIQSDSGPQSDSDLDSDSSISSCDERNEESLKDYRPGGYHPAFKGEPYKDARYILVRKLGWGHFSTVWLAKDMVNNTHVAMKIVRGDKVYTEAAEDEIKLLQRVNDADNTKEDSMGANHILKLLDHFNHKGPNGVHVVMVFEVLGENLLALIKKYEHRGIPLIYVKQISKQLLLGLDYMHRRCGIIHTDIKPENVLMEIGDVEGIVQMVEALDKQKREAKRLQRHVSRSSDITANDSSDEKWAECQTSMPCGSSSNSKSRSIEKDLSKRCFRRPRRHTIITGSQPLPSPISSSNFFEMRAHFCGSSHNSFSSVSGNRNIPSSINNNSINNGIGIKNSNNSFLNSVPHSVTRMFINEDSNDNNNNDNSKNKNNNNNNSNNNNNEDIMNTPLHEEQLADSLSTFDISNISQSSDTNGPYISNTMDSNSNVSTDINSPENLIQIKIADLGNACWYDEHYTNSIQTREYRSPEVLLGAPWGCGADIWSTACLIFELITGDFLFEPDEGHSYTKDDDHIAQIIELLGELPSYLLRNGKYTRTFFNSRGLLRNISKLKFWPLEDVLTEKYKFSKDEAKEISDFLSPMLQLDPRKRADAGGLVNHPWLKDTLGMEEIRVPDRELYGSGSDIPGWFEEVRDHKRH
With B10, the “medrep (log2 median colony size normalized to plate background, PCA score)” value was determined as 1.64.
